Reference: US20070166719A1 (NEW ENGLAND BIOLABS, published 2007)

Target: T1, R-M-CspCI endonuclease-methyltransferase subunit (Citrobacter species 2144 (NEB#1398))
T1 construct: also called large subunit; R-M-subunit
T1 chain: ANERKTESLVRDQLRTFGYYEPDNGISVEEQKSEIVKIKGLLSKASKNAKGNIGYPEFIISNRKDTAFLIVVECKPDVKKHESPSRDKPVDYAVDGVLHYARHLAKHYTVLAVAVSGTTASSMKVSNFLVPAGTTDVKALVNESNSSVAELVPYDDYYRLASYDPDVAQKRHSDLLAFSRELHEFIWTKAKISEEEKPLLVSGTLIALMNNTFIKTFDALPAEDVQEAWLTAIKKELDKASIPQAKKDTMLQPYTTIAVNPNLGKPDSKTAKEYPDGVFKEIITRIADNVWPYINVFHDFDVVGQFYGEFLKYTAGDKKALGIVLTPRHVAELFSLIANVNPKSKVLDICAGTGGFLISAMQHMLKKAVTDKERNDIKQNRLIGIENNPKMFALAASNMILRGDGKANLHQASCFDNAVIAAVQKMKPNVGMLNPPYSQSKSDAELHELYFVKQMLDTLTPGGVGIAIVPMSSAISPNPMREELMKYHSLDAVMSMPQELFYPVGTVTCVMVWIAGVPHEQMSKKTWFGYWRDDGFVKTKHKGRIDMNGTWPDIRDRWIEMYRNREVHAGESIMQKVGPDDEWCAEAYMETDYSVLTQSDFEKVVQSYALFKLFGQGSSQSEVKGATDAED
Test: HPLC of purified CspCI; molar ratio derived from the mass ratio 1:0.47

B1: CspCI specificity subunit (S-CspCI) (other)
chain: PKINDLFHLEYGHSLELNRLEQSTAADAVNFVGRAARNNGVTARVAPPPNLKPAAAGTISVALGGQGGAGVAFLQPRPYFCGRDVMVLTPKKHMTDQEKLWWVMCITANRFRFGFGRQANRTLKDLNLPAPQKTPSWVHTANPDAYQGVRSPASVHPVGTLAVSNWKAFILQDLFTIRKGQRLTKANMLPGTVPYIGASDTSNGVTAHIGQKPIHEGGTISVTYDGSIAEAFYQPSPFWASDAVNVLYPKGFTLTPATALFICAIIRMEKYRFNYGRKWHLERMRETVIRLPATATGAPDWDFMEKYIKTLPYSSQLQ
notes: also called small subunit; S-subunit
- molar ratio (70 kDa : 35 kDa protein in the purified enzyme): 1.06 mol small subunit per mol large subunit
